In US20250346668A1 (GENOR BIOPHARMA, published 2025):
Changes are numbered by the printed parent chain.

B1: hAb008-21 (antibody, V domains shown)
VH: QVQLVQSGAEVKKPGASVKVSCKASGYTFTDYTVNWVRQAPGQRLEWIGYINPFNSYTKYNQKFKDRVTITADTSASTAYMELSSLRSEDTAVYYCANSVSTYWGQGTTVTVSS
VL: DVVMTQSPLSLPVTLGQPASISCKSSQSLLDSDGKTYLNWFQQRPGQSPRRLIQLVSKLNSGVPDRFSGSGSGTDFTLKISRVEAEDVGVFYCWQGTHFPRTFGGGTKLEIK
notes: Humanized; constant regions not specified
B2: hAb008-30 (antibody, V domains shown)
VH: B1 VH with R38K, V68A, Y95F
VL: B1 VL with F41L
notes: as for B1
B3: hAb008-29 (antibody, V domains shown)
VH: B1 VH with R38K, V68A, Y95F
VL: B1 VL
notes: as for B1
B4: hAb008-18 (antibody, V domains shown)
VH: B1 VH with I48M, A72R, N98R
VL: B1 VL with F41L
notes: as for B1
B5: hAb008-19 (antibody, V domains shown)
VH: B1 VH with I48M, A72R, N98R
VL: B1 VL with F41L, Q42L
notes: as for B1
B6: hAb008-31 (antibody, V domains shown)
VH: B1 VH with R38K, V68A, Y95F
VL: B1 VL with F41L, Q42L
notes: as for B1
B7: hAb008-28 (antibody, V domains shown)
VH: B1 VH with R38K, V68A, Y95F
VL: B1 VL with Q54Y, F91Y
notes: as for B1
B8: hAb008-24 (antibody, V domains shown)
VH: B1 VH with V68A, Y95F
VL: B1 VL with Q54Y, F91Y
notes: as for B1
B9: hAb008-23 (antibody, V domains shown)
VH: B1 VH
VL: B1 VL with F41L, Q42L
notes: as for B1
B10: hAb008-22 (antibody, V domains shown)
VH: B1 VH
VL: B1 VL with F41L
notes: as for B1
B11: hAb008-25 (antibody, V domains shown)
VH: B1 VH with V68A, Y95F
VL: B1 VL
notes: as for B1
B12: hAb008-16 (antibody, V domains shown)
VH: B1 VH with I48M, A72R, N98R
VL: B1 VL with Q54Y, F91Y
notes: as for B1
B13: hAb008-20 (antibody, V domains shown)
VH: B1 VH
VL: B1 VL with Q54Y, F91Y
notes: as for B1
B14: hAb008-17 (antibody, V domains shown)
VH: B1 VH with I48M, A72R, N98R
VL: B1 VL
notes: as for B1
B15: hAb008-27 (antibody, V domains shown)
VH: B1 VH with V68A, Y95F
VL: B1 VL with F41L, Q42L
notes: as for B1
B16: hAb001-17 (antibody, V domains shown)
VH: QVQLVQSGAEVKKPGASVKVSCKASGYSFTNYYMHWVRQAPGQRLEWMGWTYPGNNNIKYNEKFKGRVTITRDTSASTAYMELSSLRSEDTAVYYCARDGYGYYFFDYWGQGTLVTVSS
VL: DIVMTQSPDSLAVSLGERATINCKSSQSLLNNRTRKNYLAWYQQKPGQPPKLLIYWASTRESGVPDRFSGSGSGTDFTLTISSLQAEDVAVYYCKQSYTLRTFGGGTKLEIK
notes: as for B1
B17: hAb007-21 (antibody, V domains shown)
VH: QVQLVQSGAEVKKPGASVKVSCKASGSTFTDNYIHWVRQAPGQRLEWIGWIYPGSVNIKYNEKFKDRVTITADTSASTAYMELSSLRSEDTAVYYCARDISRYYFDYWGQGTTVTVSS
VL: B16 VL with N32S, Y98F, T99I
notes: as for B1
B18: hAb001-24 (antibody, V domains shown)
VH: B16 VH with M48I, R72A
VL: B16 VL with I21M, N22S, S69T
notes: as for B1
B19: hAb001-20 (antibody, V domains shown)
VH: B16 VH
VL: B16 VL with I21M, N22S, S69T
notes: as for B1
B20: hAb007-22 (antibody, V domains shown)
VH: B17 VH
VL: B16 VL with N32S, S69T, Y98F, T99I
notes: as for B1
B21: hAb007-26 (antibody, V domains shown)
VH: B17 VH with V68A
VL: B16 VL with N32S, S69T, Y98F, T99I
notes: as for B1
B22: hAb007-20 (antibody, V domains shown)
VH: B17 VH with I48M, A72R
VL: B16 VL with I21M, N32S, S69T, Y98F, T99I
notes: as for B1
B23: hAb001-29 (antibody, V domains shown)
VH: B16 VH with R38K, M48I, V68A, R72A
VL: B16 VL
notes: as for B1
B24: hAb001-19 (antibody, V domains shown)
VH: B16 VH
VL: B16 VL with I21M, N22S
notes: as for B1
B25: hAb007-18 (antibody, V domains shown)
VH: B17 VH with I48M, A72R
VL: B16 VL with N32S, S69T, Y98F, T99I
notes: as for B1
B26: hAb007-23 (antibody, V domains shown)
VH: B17 VH
VL: B16 VL with I21M, N32S, Y98F, T99I
notes: as for B1
B27: hAb007-24 (antibody, V domains shown)
VH: B17 VH
VL: B16 VL with I21M, N32S, S69T, Y98F, T99I
notes: as for B1
B28: hAb001-18 (antibody, V domains shown)
VH: B16 VH
VL: B16 VL with S69T
notes: as for B1
B29: hAb007-19 (antibody, V domains shown)
VH: B17 VH with I48M, A72R
VL: B16 VL with I21M, N32S, Y98F, T99I
notes: as for B1
B30: hAb001-30 (antibody, V domains shown)
VH: B16 VH with R38K, M48I, V68A, R72A
VL: B16 VL with S69T
notes: as for B1
B31: hAb007-25 (antibody, V domains shown)
VH: B17 VH with V68A
VL: B16 VL with N32S, Y98F, T99I
notes: as for B1
B32: hAb007-17 (antibody, V domains shown)
VH: B17 VH with I48M, A72R
VL: B16 VL with N32S, Y98F, T99I
notes: as for B1
B33: hAb001-32 (antibody, V domains shown)
VH: B16 VH with R38K, M48I, V68A, R72A
VL: B16 VL with I21M, N22S, S69T
notes: as for B1
B34: hAb001-31 (antibody, V domains shown)
VH: B16 VH with R38K, M48I, V68A, R72A
VL: B16 VL with I21M, N22S
notes: as for B1
B35: hAb001-25 (antibody, V domains shown)
VH: B16 VH with M48I, V68A, R72A
VL: B16 VL
notes: as for B1

What follows are binders tested against T1, human CD3e/g antigen (ACRO, catalog number CDG-H52W5) (human, UniProt P07766 23-126; P09693 23-116) (assay: SPR (Biacore 8K), antibody captured via anti-human Fc).
T1 construct: Bought reagent used as the Biacore analyte; also called hCD3e/g
Description: The equilibrium dissociation constant of binding of CD3 antibodies to human CD3e/g antigen (purchased from ACRO, catalog number CDG-H52W5) was determined by kinetic binding method using Biacore 8K (GE) system. Through the capture method, the carboxylated dextran surface of CM5 chip was first activated with NHS (N-hydroxysuccinimide) and EDC (1-(3-dimethylaminopropyl)-3-ethylcarbodiimide hydrochloride), and then added with an anti-human IgG (Fc) antibody, the free amino group of which could form an amide bond with the activated carboxyl group, thereby being fixed on the chip surface. The anti-human IgG (Fc) antibody could bind to the Fc end of CD3 antibodies to capture the antibodies, and then a series of concentrations of antigen were added to obtain the binding and dissociation curves of antibody and antigen, and the corresponding kinetic constants were calculated by Biacore Evaluation software, as shown in the table below.

Binder | Kd [nM] | koff [s⁻¹] | kon [M⁻¹ s⁻¹]
B1 | 18.6 | 0.00382 | 205000
B2 | 20.4 | 0.00522 | 256000
B3 | 20.8 | 0.00378 | 182000
B4 | 33.9 | 0.00691 | 204000
B5 | 26.1 | 0.00573 | 219000
B6 | 15.1 | 0.00381 | 252000
B7 | 27.2 | 0.00441 | 162000
B8 | 21.5 | 0.00269 | 125000
B9 | 17.4 | 0.00487 | 280000
B10 | 20.6 | 0.00588 | 285000
B11 | 36.8 | 0.00741 | 202000
B12 | 18.6 | 0.00189 | 101000
B13 | 14.5 | 0.00152 | 105000
B14 | 7.57 | 0.00126 | 167000
B15 | 18 | 0.00475 | 264000
B16 | 15.7 | 0.00452 | 288000
B17 | 8.06 | 0.00377 | 468000
B18 | 16.6 | 0.00655 | 394000

Binder | Kd [nM] | koff [s⁻¹] | kon [M⁻¹ s⁻¹]
B19 | 10.8 | 0.00303 | 281000
B20 | 13.3 | 0.00594 | 446000
B21 | 12 | 0.00565 | 470000
B22 | 11.1 | 0.00375 | 337000
B23 | 22.8 | 0.00722 | 316000
B24 | 94.5 | 0.0354 | 375000
B25 | 6.01 | 0.00241 | 401000
B26 | 6.59 | 0.0029 | 439000
B27 | 6.16 | 0.00258 | 419000
B28 | 35.2 | 0.0121 | 343000
B29 | 9.32 | 0.00317 | 340000
B30 | 25.8 | 0.00835 | 324000
B31 | 9.24 | 0.0043 | 465000
B32 | 5.85 | 0.00225 | 385000
B33 | 16.8 | 0.00497 | 296000
B34 | 19.7 | 0.00624 | 317000
B35 | 22.6 | 0.00896 | 397000
